Laboratory results published in patent US20260209386A1 (MYTHIC THERAPEUTICS, published 2026).

T1: Human PTK7 (human, UniProt Q13308 31-1070)
T1 sequence: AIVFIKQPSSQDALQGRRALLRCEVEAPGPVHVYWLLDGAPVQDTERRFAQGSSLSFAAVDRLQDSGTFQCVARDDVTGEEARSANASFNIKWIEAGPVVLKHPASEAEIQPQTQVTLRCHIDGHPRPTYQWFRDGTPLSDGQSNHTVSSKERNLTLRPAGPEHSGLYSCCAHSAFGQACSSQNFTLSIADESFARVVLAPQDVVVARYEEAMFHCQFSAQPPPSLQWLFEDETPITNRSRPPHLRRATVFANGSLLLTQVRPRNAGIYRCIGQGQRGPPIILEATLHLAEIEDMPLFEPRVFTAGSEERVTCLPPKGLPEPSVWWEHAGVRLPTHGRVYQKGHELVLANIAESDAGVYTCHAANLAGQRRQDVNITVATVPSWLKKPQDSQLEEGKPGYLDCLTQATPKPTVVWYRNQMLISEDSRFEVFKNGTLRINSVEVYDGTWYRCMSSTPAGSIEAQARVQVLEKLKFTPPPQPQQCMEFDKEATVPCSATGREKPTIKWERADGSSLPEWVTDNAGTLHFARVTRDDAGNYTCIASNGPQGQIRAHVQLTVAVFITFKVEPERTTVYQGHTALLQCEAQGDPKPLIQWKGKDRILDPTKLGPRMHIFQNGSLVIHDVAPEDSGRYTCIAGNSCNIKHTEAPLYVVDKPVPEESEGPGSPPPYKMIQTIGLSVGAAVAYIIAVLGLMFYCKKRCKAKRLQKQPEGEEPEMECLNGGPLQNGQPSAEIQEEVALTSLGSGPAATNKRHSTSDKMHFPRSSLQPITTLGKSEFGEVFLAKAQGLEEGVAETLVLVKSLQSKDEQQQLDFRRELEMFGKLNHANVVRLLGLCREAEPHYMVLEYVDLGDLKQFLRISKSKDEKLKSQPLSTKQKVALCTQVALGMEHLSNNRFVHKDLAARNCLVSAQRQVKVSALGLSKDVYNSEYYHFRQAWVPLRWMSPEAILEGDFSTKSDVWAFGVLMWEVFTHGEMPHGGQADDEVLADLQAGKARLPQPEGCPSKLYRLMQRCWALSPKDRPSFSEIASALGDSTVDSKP


The binders below were run against T1, Human PTK7 (assay: cell-based or functional assay).

Row | Internalization, FOW @ 25 nM (fold over the wildtype, parental antibody) | Binder
1 | 1.29 fold over parental antibody | MYT11142 (antibody, V domains shown) VH: EVQLVESGGGLVQPGGSLRLSCTASGFSLSTYAMSWVRQAPGKGLEWVGMIYINDNTYYASWAKGRFTISRDTSKNTVYLQMNSLRAEDTAVYYCARDIGISYYIGVSLWGQGTLVTVSS VL: EIVMTQSPSTLSASVGDRVIITCQASQSIGTRLSWYQQKPGKAPKLLIYGASKLATGVPSRFSGSGSGAEFTLTISSLQPDDFATYYCLGEYSYTTTDGIAFGQGTKLTVL
2 | 1.61 fold over parental antibody | MYT11143 (antibody, V domains shown) VH: EVQLVESGGGLVQPGGSLRLSCTASGFSLSTYAMSWVRQAPGKGLEWVGMIYINANTYYASWAKGRFTISRDTSKNTVYLQMNSLRAEDTAVYFCARDIGISYYIGVSLWGQGTLVTVSS VL: EIVMTQSPSTLSASVGDRVIITCQASQSIGTRLSWYQQKPGKAPKLLIYGASKLATGVPSRFSGSGSGAEFTLTISSLQPDDFATYYCLGEYSYTTTDGIAFGQGTKLTVL
3 | 1.32 fold over parental antibody | MYT11190 (antibody, V domains shown) VH: EVQLVESGGGLVQPGGSLRLSCTASGIDLSSYVMGWVRQAPGKGLEWVGHIYGGGGTYYATWARGRFTISRDTSKNTVYLQMNSLRAEDTAVYFCARAAADFYFNLWGQGTLVTVSS VL: EIVMTQSPSTLSASVGDRVIITCQASQSISSYLAWYQQKPGKAPKLLIYDISDLASGVPSRFSGSGSGAEFTLTISSLQPDDFATYYCQSYYWISNSGAAFGQGTKLTVL
4 | 1.15 fold over parental antibody | MYT11232 (antibody, V domains shown) VH: EVQLVESGGGLVQPGGSLRLSCTASGIDLSSYVMGWVRQAPGKGLEWVGYIYGGGGTYYATWARGRFTISRDTSKNTVYLQMNSLRAEDTAVYFCARAAADFYFNLWGQGTLVTVSS VL: EIVMTQSPSTLSASVGDRVIITCQASQSISSYLAWYQQKPGKAPKLLIYDHSDLASGVPSRFSGSGSGAEFTLTISSLQPDDFATYYCQSYYWISNSGAAFGQGTKLTVL
5 | 1.23 fold over parental antibody | MYT11212 (antibody, V domains shown) VH: EVQLVESGGGLVQPGGSLRLSCTASGIDLSSYVMGWVRQAPGKGLEWVGYIYGGGGTYYATWARGRFTISRDTSKNTVYLQMNSLRAEDTAVYFCARAAADHYFNLWGQGTLVTVSS VL: EIVMTQSPSTLSASVGDRVIITCQASQSISSYLAWYQQKPGKAPKLLIYDISDLASGVPSRFSGSGSGAEFTLTISSLQPDDFATYYCQSYYWISNSGAAFGQGTKLTVL
6 | 1.14 fold over parental antibody | MYT11211 (antibody, V domains shown) VH: EVQLVESGGGLVQPGGSLRLSCTASGIDLSSYVMGWVRQAPGKGLEWVGYIYGGGGTYYATWARGRFTISRDTSKNTVYLQMNSLRAEDTAVYFCARAAAHFYFNLWGQGTLVTVSS VL: EIVMTQSPSTLSASVGDRVIITCQASQSISSYLAWYQQKPGKAPKLLIYDISDLASGVPSRFSGSGSGAEFTLTISSLQPDDFATYYCQSYYWISNSGAAFGQGTKLTVL
7 | 1.11 fold over parental antibody | MYT11257 (antibody, V domains shown) VH: EVQLVESGGGLVQPGGSLRLSCTASGIDHSRYSMGWVRQAPGKGLEWVGIISYGGSTYYASWAKGRFTISRDTSKNTVYLQMNSLRAEDTAVYFCARVGYPGYSGYGYAFDAFDPWGQGTLVTVSS VL: EIVMTQSPSTLSASVGDRVIITCQSSKSVYNDNWLSWYQQKPGKAPKLLIYGASTLASGVPSRFSGSGSGAEFTLTISSLQPDDFATYYCAGGYSSSSDNGFGQGTKLTVL
8 | 1.14 fold over parental antibody | MYT11259 (antibody, V domains shown) VH: EVQLVESGGGLVQPGGSLRLSCTASGIDLSHYSMGWVRQAPGKGLEWVGIISYGGSTYYASWAKGRFTISRDTSKNTVYLQMNSLRAEDTAVYFCARVGYPGYSGYGYAFDAFDPWGQGTLVTVSS VL: EIVMTQSPSTLSASVGDRVIITCQSSKSVYNDNWLSWYQQKPGKAPKLLIYGASTLASGVPSRFSGSGSGAEFTLTISSLQPDDFATYYCAGGYSSSSDNGFGQGTKLTVL
9 | 1.22 fold over parental antibody | MYT11069 (antibody, V domains shown) VH: EVQLVESGGGLVQPGGSLRLSCTASGLSLSSYWMSWVRQAPGKGLEWVGVISAGGNTYYANWAKGRFTISRDTSKNTVYLQMNSLRAEDTAVYYCARGDDGYTNAAYVSNLWGQGTLVTVSS VL: EIVMTQSPSTLSASVGDRVIITCQASQSISSWLSWYQQKPGKAPKLLIYKASTLASGVPSRFSGSGSGAEFTLTISSLQPDDFATYYCQSYFDSTTIAFGQGTKLTVL
10 | 1.17 fold over parental antibody | MYT11100 (antibody, V domains shown) VH: EVQLVESGGGLVQPGGSLRLSCTASGLSLSSYWMSWVRQAPGKGLEWVGVISAGGNTYYANWAKGRFTISRDTSKNTVYLQMNSLRAEDTAVYFCARGDDGYTNAAYVSNLWGQGTLVTVSS VL: EIVMTQSPSTLSASVGDRVIITCQASQSISSWLSWYQQKPGKAPKLLIYKASTLASGVPSRFSGSGSGAEFTLTISSLQPDDFATYYCQSYFDSTTIAFGQGTKLEIK
11 | 1.2 fold over parental antibody | MYT11079 (antibody, V domains shown) VH: EVQLVESGGGLVQPGGSLRLSCTASGLSLSSYWMSWVRQAPGKGLEWVGVISAGGNTYYANWAKGRFTISRDTSKNTVYLQMNSLRAEDTAVYFCARGDDGYTNAAYVSNLWGQGTLVTVSS VL: EIVMTQSPSTLSASVGDRVIITCQASQSISHWLSWYQQKPGKAPKLLIYKASTLASGVPSRFSGSGSGAEFTLTISSLQPDDFATYYCQSYFDSTTIAFGQGTKLTVL
12 | 1.43 fold over parental antibody | MYT11096 (antibody, V domains shown) VH: EVQLVESGGGLVQPGGSLRLSCTASGLSLSSYWMSWVRQAPGKGLEWVGVISAGGNTYYANWAKGRFTISRDTSKNTVYLQMNSLRAEDTAVYFCARGDDGYTNAAYVSNLWGQGTLVTVSS VL: EIVMTQSPSTLSASVGDRVIITCQASQSISSWLSWYQQKPGKAPKLLIYKASTLASGVPSRFSGSGSGAEFTLTISSLQPDDFATYYCQSYFDSHTIAFGQGTKLTVL
13 | 1.22 fold over parental antibody | MYT11081 (antibody, V domains shown) VH: EVQLVESGGGLVQPGGSLRLSCTASGLSLSSYWMSWVRQAPGKGLEWVGVISAGGNTYYANWAKGRFTISRDTSKNTVYLQMNSLRAEDTAVYFCARGDDGYTNAAYVSNLWGQGTLVTVSS VL: EIVMTQSPSTLSASVGDRVIITCQASQSISSWHSWYQQKPGKAPKLLIYKASTLASGVPSRFSGSGSGAEFTLTISSLQPDDFATYYCQSYFDSTTIAFGQGTKLTVL
14 | 1.24 fold over parental antibody | MYT11078 (antibody, V domains shown) VH: EVQLVESGGGLVQPGGSLRLSCTASGLSLSSYWMSWVRQAPGKGLEWVGVISAGGNTYYANWAKGRFTISRDTSKNTVYLQMNSLRAEDTAVYFCARGDDGYTNAAYVSNLWGQGTLVTVSS VL: EIVMTQSPSTLSASVGDRVIITCQASQSIHSWLSWYQQKPGKAPKLLIYKASTLASGVPSRFSGSGSGAEFTLTISSLQPDDFATYYCQSYFDSTTIAFGQGTKLTVL
15 | 1.14 fold over parental antibody | MYT11084 (antibody, V domains shown) VH: EVQLVESGGGLVQPGGSLRLSCTASGLSLSSYWMSWVRQAPGKGLEWVGVISAGGNTYYANWAKGRFTISRDTSKNTVYLQMNSLRAEDTAVYFCARGDDGYTNAAYVSNLWGQGTLVTVSS VL: EIVMTQSPSTLSASVGDRVIITCQASQSISSWLSWYQQKPGKAPKLLIYKHSTLASGVPSRFSGSGSGAEFTLTISSLQPDDFATYYCQSYFDSTTIAFGQGTKLTVL
